Test results taken from patent US20250381307A1, “RETRO-AAV AND USE IN TREATING NEURODEGENERATIVE DISEASES” (priority 2023, published 2025).

B1: AAV8R12: AAV8R capsid mutant V183E + N411S (SEQ ID NO: 13; SEQ ID NO: 59) (protein)
chain: MAADGYLPDWLEDNLSEGIREWWALKPGAPKPKANQQKQDDGRGLVLPGYKYLGPFNGLDKGEPVNAADAAALEHDKAYDQQLQAGDNPYLRYNHADAEFQERLQEDTSFGGNLGRAVFQAKKRVLEPLGLVEEGAKTAPGKKRPVEPSPQRSPDSSTGIGKKGQQPARKRLNFGQTGDSESEPDPQPLGEPPAAPSGVGPNTMAAGGGAPMADNNEGADGVGSSSGNWHCDSTWLGDRVITTSTRTWALPTYNNHLYKQISNGTSGGATNDNTYFGYSTPWGYFDFNRFHCHFSPRDWQRLINNNWGFRPKRLSFKLFNIQVKEVTQNEGTKTIANNLTSTIQVFTDSEYQLPYVLGSAHQGCLPPFPADVFMIPQYGYLTLNDGSQAVGRSSFYCLEYFPSQMLRTGNSFQFTYTFEDVPFHSSYAHSQSLDRLMNPLIDQYLYYLSRTQTTGGTANTQTLGFSQGGPNTMANQAKNWLPGPCYRQQRVSTTTGQNNNSNFAWTAGTKYHLNGRNSLANPGIAMATHKDDEERFFPSNGILIFGKQNAARDNADYSDVMLTSEEEIKTTNPVATEEYGIVADNLQRGNLADQDYTKTARQAATADVNSQGALPGMVWQNRDVYLQGPIWAKIPHTDGNFHPSPLMGGFGLKHPPPQILIKNTPVPADPPTTFNQSKLNSFITQYSTGQVSVEIEWELQKENSKRWNPEIQYTSNYYKSINVDFAVNTEGVYSEPRPIGTRYLTRN
B2: G88P7: 896-bp shortened derivative of G88P2 promoter (SEQ ID NO: 46) (nucleic acid, listed as Homo sapiens)
DNA: ATGCCAAGCGTGGAAAGGCTGTCTTTTCCCTGGATGATGTATAACTAAGCAGGAGAGAGCTTCGAGTGGGTTCACCACATCAGCCACCACTCCTGCTTCTGAGCACAGGGTGCTCTCCTCTTGAGCTCAGCTTCTGCTTTTGCAGCCAAGCATTCTTGCTGCTGCTGCCTGCCTGCCCACCCGCCTGGGCTTGCAGCCCGCCACTTTACTTTCTCCAGCCCTGATACCAGCTGAGAAGTCTCCCTGCAGCTGCTAGTTCCTGCCCAGGACCATGTGTGTGGATGCTGCTTGGGAGAAGCGGGCACTTGCTCCTGGCACTGATCCCAGCTGAGTTTCTCCTGTTGATTTCTGGACCACTGATGCTGTTGCTGAGGAGGTATTTCCCGGCATCCCTCCCCCTGAGACACCGGCTAAGGACCAGCCTAAACGCAAGGTAACCTTCACCTCTTTCCCATGGGATTTTCCCCAGCTGGGATATCTCTGCTTTCTCCTGGAACTAGGTCCTCCAGCTGGCAACATATCTCTCTCTCTCTCTCTCTCTCTCTCTCTCTCTCTCTCTCTGTGTGTGTGTGTGTGTGTTGGGGGAGAAGAGGAGACTGTTTTAGGTATTGCTCTGTCCTAGGGCTTCCCCGATACCTGCTGAATCCAATGCAAAGTGGCCTTTCCCCTGGCTCTGGAGACATTTCCGAGGCAGGCACCTGTCATCTGCCACCCCCGTCCTCCTCCTCGAGCTCCCTTTCTCCCCCTCCCCCAGCCCATTATTCTGCTTCAGCCTTTTGTGTCAGTGGCAGAGGGCTGAAGGGATGTCTTTGCCCTTCTGGCAGGCAGGACAGTGTCAGGATGGACCGCGCTGCCAGAAGCCGACGCTAGCGAGGGAGGTGTGAAGAGTTGGCCAG
B3: AAV8R: AAV8 capsid with N385D, insertion of SEQ ID NO: 31 at position 588 and TS to IN mutation (SEQ ID NO: 1) (protein)
chain: MAADGYLPDWLEDNLSEGIREWWALKPGAPKPKANQQKQDDGRGLVLPGYKYLGPFNGLDKGEPVNAADAAALEHDKAYDQQLQAGDNPYLRYNHADAEFQERLQEDTSFGGNLGRAVFQAKKRVLEPLGLVEEGAKTAPGKKRPVEPSPQRSPDSSTGIGKKGQQPARKRLNFGQTGDSESVPDPQPLGEPPAAPSGVGPNTMAAGGGAPMADNNEGADGVGSSSGNWHCDSTWLGDRVITTSTRTWALPTYNNHLYKQISNGTSGGATNDNTYFGYSTPWGYFDFNRFHCHFSPRDWQRLINNNWGFRPKRLSFKLFNIQVKEVTQNEGTKTIANNLTSTIQVFTDSEYQLPYVLGSAHQGCLPPFPADVFMIPQYGYLTLNDGSQAVGRSSFYCLEYFPSQMLRTGNNFQFTYTFEDVPFHSSYAHSQSLDRLMNPLIDQYLYYLSRTQTTGGTANTQTLGFSQGGPNTMANQAKNWLPGPCYRQQRVSTTTGQNNNSNFAWTAGTKYHLNGRNSLANPGIAMATHKDDEERFFPSNGILIFGKQNAARDNADYSDVMLTSEEEIKTTNPVATEEYGIVADNLQRGNLADQDYTKTARQAATADVNSQGALPGMVWQNRDVYLQGPIWAKIPHTDGNFHPSPLMGGFGLKHPPPQILIKNTPVPADPPTTFNQSKLNSFITQYSTGQVSVEIEWELQKENSKRWNPEIQYTSNYYKSINVDFAVNTEGVYSEPRPIGTRYLTRNL

Legend:
[1] = system: striatonigral projection neurons (striatal MSNs); test: Retrograde labeling of striatal MSNs after AAV injection into the SNr (EYFP+ cell counting); assay type: in vivo, mice; settings: for labeled striatonigral projection neurons (FIG. 2C): wild type mice, n=3, mean±SEM
Excerpt: (§1) Brain profiles of two epigenetic marks for enhancers and promoters, monomethylation of histone H3 lysine 4 (H3K4me1) and acetylation of histone H3 lysine 27 (H3K27ac) were checked and approximately 2 kilobase-long sequences around the transcriptional start site (TSS) that have high levels of H3K4me1 and/or H3K27ac were identified in mouse brain. Homologous sequences at equivalent positions of the human genome were then cloned onto an AAV backbone, and the activity of the homologous sequences in directing reporter expression was tested in mice after injections of AAVs into the SNr (FIG. 3A-C, TABLE 3).
(§2) Mice were anesthetized with sodium pentobarbital (Nembutal; 80 mg/kg, i.p.), and then placed into a stereotaxic device (KOPF). Eye cream was applied on both corneas to avoid dehydration. The skull above the targeted areas was thinned with a dental drill and carefully removed. Injections were conducted with a 10 μL syringe connected to a 33-Gauge needle (Neuros; Hamilton), using a microsyringe pump (Legato 130, KD Scientific). A total volume of 200 nL virus was injected into the SNr at a speed of 20 nL/min. The coordinates for the SNr were 3.4 mm posterior, 1.3 mm lateral, 4.8 mm ventral to the bregma.
(§3) Images were acquired using a confocal microscope (Carl Zeiss, LSM880) and an Axiolmager.Z1 microscope with apotome (Carl Zeiss). Brain structures were identified microscopically and in digital photos using a mouse brain atlas. To analyze the number of EYFP+ cells in the striatum, slices from rostral to caudal striatum were used. Every sixth section was analyzed, and numbers of EYFP+ cells were multiplied by six to acquire the approximate total number and mean number of cells per animal. Images were processed using ImageJ (NIH, USA), and final quantifications were independently performed manually by two blinded experimenters.

[2] = system: MSNs in nucleus accumbens; test: Retrograde labeling of accumbal MSNs after delivery into ventral pallidum or lateral hypothalamus; assay type: in vivo, mouse; settings: stereotaxic delivery into ventral pallidum or lateral hypothalamus
substantia nigra = test: Promoter activity level in substantia nigra after AAV injection into the SNr; assay type: in vivo, mice; settings: numbers of YFP-expressing neurons per animal
Excerpt: as §1, §2, §3

Row | Molecule | Labeling Efficiency in Striatonigral Pathway ([1]; AAV8R capsid mutants, numbers of labeled neurons per animal) | labeled striatonigral projection neurons (FIG. 2C) ([1]; SNr injection) | times EYFP positive / labeled MSNs compared to rAAV2-retro ([1]; after nigral delivery, hSyn-EYFP) | labeling of MSNs in nucleus accumbens [2] | reporter-labeled MSNs by promoter (FIG. 4B) ([1]; SNr injection, n=3 mice, mean±SEM) | Activity Level STR ([1]; striatum, numbers of YFP-expressing neurons per animal) | labeled MSNs per mouse ([1]; viruses expressing EYFP, injection into the SNr (FIG. 4B)) | Activity Level SN (substantia nigra)
1 | B1 | +++ (10k-25k) | 16026±1654 | 7.72±0.78 times | robust labeling |  |  |  | 
2 | B2 |  |  |  |  | 39460±7281 | ++++ (>25k) | 3.95±0.73 ×104 MSNs per mouse | + (<5k)
3 | B3 |  | 10092±463.9 |  | robust labeling |  |  |  | 
